experiment: yeast display, Sf9 membrane polyspecificity reagent, FACS + sequencing; frameworks hold sequencing errors
Method in brief: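 Galactose induction of a Saccharomyces cerevisiae BJ5465 synthetic nanobody display library ran 36–48 hours. The cells were then stained for 1 hour at 4 °C with 10% biotinylated, detergent-solubilized Sf9 membrane reagent, pulled down on streptavidin microbeads and FACS-sorted into low and high (top ~1%) gates on expression and reagent-binding fluorescence. Labels for polyreactivity follow the gate of origin.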

Sequence | polyreactivity (PSR sort gate)
QVQLVESGGGLVQAGGSLRLSCAASGITFYYYTMGWYRQAPGKERELVAGITYRGGRTYYADSVKGRFTISRDNAKNTVYLQMNSLKPEDTAVYYCAADDLGWWFYSGGEDYYYWGQGTQVTVSS | low polyreactivity
QVQLVESGGGLVQAGGSLRLSCAASGITIFGYAMGWYRQAPGKERELVAAINYSGDSTYYADSVKGRFTISRDNAKNTVYLQMNSVKPEDTAVYYCAATRSYRQPGPKYKSYYYLYYYWGQGTQVTVSS | high polyreactivity
QVQLVESGGGLVQAGGSLRLSCAASGITIFRYALGWSRQAPGKERELVAAISSSGGSTYYADSVKGRFTISRDNAKNTVYLQMNSLKPEDTAVYYCAAAHGYRYYWGQGTQVTVSS | high polyreactivity
QVQLVESGGGLVQAGGSLRLSCAASGITIGRYAMGWYRPAPGKERELVAAISSTGGRTYYADSVKGRFTISRDNAKNTVYLQMNSLKPEDTAVYYCAAGRRRPFGRNDYWGQGTQVTVSS | high polyreactivity
QVQLVESGGGLVQAGGSLRLSCAASGITIKRYAIGWYRQAPGKEREFVATISQSGTSTYYADSVKGRFTISRDNAMNTVYLQMNSLKPEDTAVYYCAADYIGYWYGYYSWGQGTQVTVSS | low polyreactivity
QVQLVESGGGLVQAGGSLRLSCAASGITIKRYAMVWYSQAHGKEREFVATISQSGTSTYYADSVKGRFTISRDNAKNTVYLQMNSLKPEDTAVYYCAADYIGYWYGYYSWGQGTKVTVSS | low polyreactivity
QVQLVESGGGLVQAGGSLRLSCAASGITIPVYMGWYRQPPGKERELVASISTIGGTTYYADSVKGRFTITRDNAKNTVYLQMNRLKPEDSAVYYCAADHPWSWYDYWGQGTQVTVSW | low polyreactivity
QVQLVESGGGLVQAGGSLRLSCAASGITIRRYAMGWYRQAPGKERELVAAITYSGGGSTYYADSVKGRFTISRDNAKNTVYLQMNSLKPEDTAVYYCAAGWYPWGYYSGYISYEYWGQGTQVTVSS | high polyreactivity
QVQLVESGGGLVQAGGSLRLSCAASGITIRYNAMGWYRQAPGKERELVAAISRGGDRTYYADSVKGRFTISRDNAKNTVYLQMNSLKPEDTAVYYCAADWSEKYEYWGQGTQVTVSS | high polyreactivity
QVQLVESGGGLVQAGGSLRLSCAASGITISPNAMGWYRQAPGKERELVAAIDWSGDRTYYADSVKGRFTISRDNAKNTVYLQINSLKPEDTAVYYCNVVRRSPGDYSYYYWGQGTQVTVSS | low polyreactivity
QVQLVESGGGLVQAGGSLRLSCAASGITISVNDMGWYRQAPGKERELVAAISSGDSTNYADSVKGRFTISRDNAKNTVYLQMNSLKPEDTAVYYCAALEGSLTGWQTYDYWGQGTQVSVSS | low polyreactivity
QVQLVESGGGLVQAGGSLRLSCAASGITIVNYVMGWYRQAPGKERELVAAISIGGGTYYADSVKGRFTISRDNAKNTVYLQRNSLKPEDTAVYYCNATFGGLSFYIGVYVTGYDYWGQGTQVTVSS | low polyreactivity
QVQLVESGGGLVQAGGSLRLSCAASGITIWWYAMGWYRQAPGKERELLAAITGGGSTNYADSVKGRFTISRDNAKNTVYLQMNSLKPEDTAVYYCAATGSPARNWDTVTGYYYWGQGTQVTVSS | low polyreactivity
QVQLVESGGGLVQAGGSLRLSCAASGITIYAYAMGWSRQAPGKERELVAAINWSGGRTFYADSVKGRFTISRDNAKNTDYLQMNSLKPEDTAVYYCAAAYTRSYSWARGYDYWGQGTQVTVSS | high polyreactivity
QVQLVESGGGLVQAGGSLRLSCAASGITIYRYAMGWYRQAPGKERELVATITWSGGSTYYADSVKGRFTISRDNAKNTVYLQMNSLKPEDTALYYCAAYSPYIYQAYRYDYWGQGTQVTVSS | low polyreactivity
QVQLVESGGGLVQAGGSLRLSCAASGITLDRYAMGWYRQAPGKERELVAAISRSTTSTYYADSVKGRFTISRDNAKNTVYLQMNSLKREDTAVYYCATRTYRVDPEYGYWGQGTQVTVSS | high polyreactivity
